The Kd is the equilibrium constant for the complex coming apart. High values mean weaker binding, low ones tighter binding. As a reminder, the koff is a measure of how fast the partners let go of each other. As a reminder, the kon is the rate constant with which the complex forms. High values mean faster complex formation, low ones slower complex formation.

The target of assay [1] is T1, cynomolgus (cyno) MS4A6A (cynomolgus, UniProt Q9H2W1 1-246 (human entry)).
T1 construct: Full-length protein expressed in transfected HEK293, U937 or K562 cells (flow cytometry)
T1 chain: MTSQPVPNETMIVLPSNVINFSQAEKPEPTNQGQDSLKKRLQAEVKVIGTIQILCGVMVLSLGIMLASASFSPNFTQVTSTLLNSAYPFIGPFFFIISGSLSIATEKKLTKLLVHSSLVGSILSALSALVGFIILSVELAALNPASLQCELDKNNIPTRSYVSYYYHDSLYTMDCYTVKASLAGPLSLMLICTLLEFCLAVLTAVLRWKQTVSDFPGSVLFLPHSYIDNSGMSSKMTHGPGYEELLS
Briefly: flow cytometry, hybridoma supernatant, HEK293 transfected with cyno MS4A6A over parental HEK293; Screen 2. Here is the method:
(§1) Positive clones were expanded and then rescreened for specificity against HEK293 cells overexpressing cyno MS4A6A and parental HEK293 cells. Briefly, previously prepared, cryopreserved transiently-transfected cells were labeled with LIVE/DEAD Fixable Aqua Dead Cell Stain Kit (ThermoFisher Scientific L34957) on ice for 30 minutes. After a wash with PBS, 2×10⁵ cells were aliquoted per well in 96-well round bottom plates and incubated with 50 μl of culture supernatant on ice for 30 mins. […] Following this secondary incubation, the cells were again washed twice with ice-cold FACS buffer and resuspended in a final volume of 200 μl of FACS buffer. Analysis was performed on a FACS Canto system (BD Biosciences), with sort gates drawn to exclude dead (Aqua-positive) cells. […] The screen was repeated twice, and the numbers reported here represent the ratio of mean fluorescence level in transfected cells over parental cells.
Background: A flow cytometer gives signals particle by particle.

Assay [2] deals with T2, MS4A6A ECL2 peptide (human).
T2 construct: also called MS4A6A ECL-2 peptides
T2 peptide: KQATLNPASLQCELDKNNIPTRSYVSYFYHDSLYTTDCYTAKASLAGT
In words: array SPR (Carterra MX-96), antibody captured on anti-mouse IgG-Fc, ECL2 peptide injected. The method, then:
(§2) Binding kinetic characterization of the purified antibodies to MS4A6A ECL1 and ECL2 peptides was performed by Carterra (South San Francisco, Calif.) using a proprietary array Surface Plasmon Resonance (SPR) instrument (MX-96) as follows. Antibodies were printed onto a CMD5OOD chip (Xantec #SPMX CMD500D lot #SC CMD500D0117.a Exp. 31.12.18) using the Continuous Flow Microspotter (CFM). First, the chip was activated with 100 mM MES pH 5.5, 100 μL EDC (133 mM final), 100 μL of S-NHS (33.3 mM final), for 7 minutes. A lawn of anti-mouse IgG-Fc (Jackson ImmunoResearch CAT #115-005-071 lot#130410) was injected for 15 minutes to establish a surface density of 10000-12000 RU, after which the chip surface was deactivated with 1 M ethanolamine at pH 8.5 for 10 minutes. Anti-MS4A6A antibodies in question, in the form of hybridoma supernatants diluted 2:1 with HBS-EP+buffer (Teknova CAT #H8022), were then printed as duplicates with a 20 minute and a 5 minutes print from the same sample solution. Control antibodies were diluted to 20 μ/ml for printing.
(§3) To perform kinetic analysis, the peptides in question were prepared in HBS-EP+buffer with lmg/ml BSA at final assay concentrations of 2000 nM, 400 nM, 80 nM, 16 nmM, and 3.2 nM. These were then injected on the chip for five minutes, followed by a seven-minute dissociation period at 8 uL per second in a non-regenerative kinetic series. Duplicate measurements for each anti-MS4A6A antibody were taken to ensure reproducibility.
(§4) Kₐ (association rate constant; Kₒₙ), Kd (dissociation rate constant; Koff) and KD (equilibrium constant) to MS4A6A ECL-2 peptides were calculated for each of the 23 anti-MS4A6A antibodies tested, the results of which are shown below in Table 5 (clones that bound too weakly to determine these values are denoted as N/A in Table 5).

For assay [3], the target named is T3, MS4A6A ECL1 peptide (human).
T3 construct: the description elsewhere gives ECL1 as 68-84; Human and cyno ECL1 are said to be identical
T3 peptide: SASFSPNFTQVTSTLLNS
In words: array SPR (Carterra MX-96), antibody captured, peptide injected. Here is the method:
as §2, §3, §4

In assay [4] the target is T1, cynomolgus (cyno) MS4A6A. Briefly: flow cytometry, hybridoma supernatant, HEK293 transfected with cyno MS4A6A over parental HEK293; Screen 1. Here is the method: as §1
Assay [5] deals with T3, MS4A6A ECL1 peptide. In words: peptide ELISA, hybridoma supernatant. Here is the method: (§5) Anti-MS4A6A hybridoma supernatants were tested for binding to MS4A6A peptides derived from ECL1 (amino acid residues 68-85 of human MS4A6A of SEQ ID NO:1) and ECL2 (amino acid residues 138-185 of human MS4A6A of SEQ ID NO:1) sequences, using an enzyme-linked immunosorbent assay (ELISA). Briefly, 96-well polystyrene plates were coated with 1-10 μg/mL of synthetic free or BSA-conjugated peptides in coating buffer (0.05M carbonate buffer, pH9.6, Millipore Sigma C3041) overnight at 4° C. Coated plates were then blocked with ELISA diluent (PBS+0.5% BSA+0.05% Tween20) for 1-hour, washed 3×300 μL in PBST (PBS+0.05% Tween20, Thermo 28352), and then the antibodies were added at various dilutions (100-1000×) in ELISA diluent. After 30 mins incubation (room temperature, with shaking), the plates were washed 3×300 μl in PBST. A secondary anti-mouse HRP antibody (Jackson Immunoresearch CAT #115-035-003) was added at a 1:1000 dilution in ELISA diluent (50 μL/well) and incubated for 30 minutes at room temperature with shaking. After a final set of washes (3×300 μl in PBST), 50 μL of TMB substrate (BioFx TMBW-1000-01) was added and the reaction was then quenched after 5-10 mins with 50 μL of stop solution (BioFx BSTP-1000-01). The quenched reaction wells were detected for absorbance at […] with a BioTek Synergy Microplate Reader using GENS 2.04 software.
(In an ELISA, binding on a coated surface is turned into a signal by an enzyme label.)

For assay [6], the target named is T4, BSA-MS4A6A-ECL2 peptide (human, BSA-conjugated).
T4 construct: Synthetic peptide derived from ECL2, conjugated to BSA, coated on the ELISA plate; also called MS4A6A-ECL2 BSA conjugated peptide; BSA-MS4A6A-ELC2 peptide
T4 peptide: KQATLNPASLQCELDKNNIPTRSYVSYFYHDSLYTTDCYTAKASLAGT
In words: peptide ELISA, hybridoma supernatant. The method, then:
as §5

Assay [7] addresses T2, MS4A6A ECL2 peptide. Briefly: array SPR (Carterra MX-96), antibody captured, peptide injected; both duplicates N/A. The method, then: as §2, §3, §4

Values joined by “and” are separate entries in the source; they are usually repeats but may differ in a detail not shown here. Equal entries are not always repeated.

B1: 6A-2 (antibody, V domains shown)
VH: DVQLQESGPGLVKPSQSLSLTCSVTGYSITSGYYWNWIRQFPGNKLEWLGYITYDGDTDYNPSLKNRVSITRDTSKNQFFLNLISVTPEDTATYYCAREDSFGYWGQGTLVTVSA
VL: not shown
notes: Mouse hybridoma antibody, tested as hybridoma supernatant (mouse IgG, detected or captured via anti-mouse IgG Fc); also called anti-MS4A6A antibody 6A-2
As for B1, the “ratio of APC MFI on MS4A6A+/HEK parental cells” value (from here on “ratio of APC MFI”) in assay [1] came to 75.5 ratio. In assay [2], the dissociation constant (Kd) was 200 nM and 120 nM; the koff was 0.001 s⁻¹ and 0.00098 s⁻¹; the association rate constant (kon) was 5300 M⁻¹ s⁻¹ and 8300 M⁻¹ s⁻¹. In addition, the binding result in assay [3] is reported as “no binding (tested: 2000 nM)”. For the same molecule, in assay [4], the “ratio of APC MFI” value amounted to 25.7 ratio.

B2: 6A-7 (antibody, V domains shown)
VH: QVQLQQSGAELARPGASVKMSCKASGYTFTSYAMHWVKQRPGQGLEWIGYINPSSGYTYYNQKFKDKATLTADKSSSTAYMQLSSLTSEDSAVYYCARSYYGNYEGYLDVWGAGTTVTVSS
VL: NIVLTQSPASLAVSLGQRATISCRASESVESYGKSFIHWYQQKPGQPPKLLIFLASNLESGVPARFSGSGSRTDFTLTIDPVEADDAATYYCQQNNVGPYTFGGGTKLEIK
notes: Mouse hybridoma antibody, tested as hybridoma supernatant (mouse IgG, detected or captured via anti-mouse IgG Fc); also called anti-MS4A6A antibody 6A-7
Turning to B2, the “ratio of APC MFI” value in assay [1] amounted to 8.3 ratio; in assay [4] it was 3.6 ratio. Also, the values for the binding result in assay [5], in assay [6] and in assay [7] were “no binding”, “no binding” and “no binding (tested: 2000 nM)”, respectively.

B3: 6A-3 (antibody, V domains shown)
VH: EVQLQQSGPELVKPGASVKMSCKASGYTFTDYFMKWVKQSHGKSLEWIGDINPKNGDTFYNQKFKGKATLTVDKSSSTAYMQLNSLTSEDSAVYYCARPGYFDVWGAGTTVTVSS
VL: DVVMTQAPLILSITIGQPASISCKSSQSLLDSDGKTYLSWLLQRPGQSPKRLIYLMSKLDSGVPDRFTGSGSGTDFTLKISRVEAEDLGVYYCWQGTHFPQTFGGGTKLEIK
notes: Mouse hybridoma antibody, tested as hybridoma supernatant (mouse IgG, detected or captured via anti-mouse IgG Fc); also called anti-MS4A6A antibody 6A-3
With B3, in assay [1], the “ratio of APC MFI” value was 63.7 ratio. Also, in assay [2], the Kd was 120 nM and 94 nM; the koff was 0.0006 s⁻¹ and 0.00065 s⁻¹; the on-rate (kon) was 4800 M⁻¹ s⁻¹ and 6800 M⁻¹ s⁻¹. For the same molecule, the binding result in assay [3] is given as “no binding (tested: 2000 nM)”. For the same molecule, the “ratio of APC MFI” value in assay [4] was determined as 24.1 ratio.

B4: 6A-1 (antibody, V domains shown)
VH: EVQLQQSGPELVKPGASVKISCKASGYSFTGYYMHWVKQSPEDSLEWIGAINPSTGGSTYSQKFKDKATLTVDKSSSTAYMQLKSLTSEESAVYYCTRFDGYGYWGQGTLVTVSA
VL: DIVMTQAAFSNPVTLGTSASISCRSSKSLLHSNGITYLYWYLQKPGQSLQLLIYQMSNLASGVPDRFSGSGSGTDFTLRISRVEAEDVGVYYCAQNLELPWTFGGGTKLEIK
notes: Mouse hybridoma antibody, tested as hybridoma supernatant (mouse IgG, detected or captured via anti-mouse IgG Fc); also called anti-MS4A6A antibody 6A-1
Turning to B4, the “ratio of APC MFI” value in assay [1] was found to be 7.6 ratio; in assay [4], 7.5 ratio. Also, the binding result in assay [6] is “no binding”; in assay [7], “no binding (tested: 2000 nM)”; in assay [3], “no binding (tested: 2000 nM)”.

B5: 6A-17 (antibody, V domains shown)
VH: QVQLKESGPGLVAPSQSLSITCTISGFSLTSYGVHWVRQPPGKGLEWLVVIWSDGSTTYNSALKSRLSISKDNSKSQVFLKMNGLQTDDTAMYYCARHRGNYPYYTMDYWGQGTSVTVSS
VL: DIQMTQTTSSLSASLGDRVTISCRASQDISNYLNWYQQKPDGTVKLLIYYTSVLHSGVPSRFSGSGSGTDYSLTISNLEQEDIATYFCQQGNTLPWTFGGGTKLEIK
notes: Mouse hybridoma antibody, tested as hybridoma supernatant (mouse IgG, detected or captured via anti-mouse IgG Fc); also called anti-MS4A6A antibody 6A-17
Take B5: the “ratio of APC MFI” value in assay [1] came to 178 ratio; in assay [4], 19.3 ratio. The binding result in assay [5] is given as “no binding”; in assay [6], “no binding”; in assay [7] it was “no binding (tested: 2000 nM)”.

These data come from patent US20220380455A1 (Alector, published 2022).
